# Measured values reported in patent US20160272683A1 (Novo Nordisk, published 2016).
# Numbered stars: 1 amine (or outer) side, 2 acyl side, 3 side chain; on linkers, the order of the positions; unused ones are H or OH. * marks the point of attachment. C20 diacid = O=C(O)CCCCCCCCCCCCCCCCCCC(=O)*; C18 diacid = O=C(O)CCCCCCCCCCCCCCCCC(=O)*; C16 diacid = O=C(O)CCCCCCCCCCCCCCC(=O)*; γGlu = O=C(O)[C@H](CCC(=O)[*:2])N[*:1]; AEEA = NCCOCCOCC(=O)O
# Legend:
# Test in all cases: cell-based or functional assay
# [1] = target: T1, human calcitonin receptor on BHK570/CRE-luc cells (human, UniProt P30988 25-474)
# T1 sequence (looked up): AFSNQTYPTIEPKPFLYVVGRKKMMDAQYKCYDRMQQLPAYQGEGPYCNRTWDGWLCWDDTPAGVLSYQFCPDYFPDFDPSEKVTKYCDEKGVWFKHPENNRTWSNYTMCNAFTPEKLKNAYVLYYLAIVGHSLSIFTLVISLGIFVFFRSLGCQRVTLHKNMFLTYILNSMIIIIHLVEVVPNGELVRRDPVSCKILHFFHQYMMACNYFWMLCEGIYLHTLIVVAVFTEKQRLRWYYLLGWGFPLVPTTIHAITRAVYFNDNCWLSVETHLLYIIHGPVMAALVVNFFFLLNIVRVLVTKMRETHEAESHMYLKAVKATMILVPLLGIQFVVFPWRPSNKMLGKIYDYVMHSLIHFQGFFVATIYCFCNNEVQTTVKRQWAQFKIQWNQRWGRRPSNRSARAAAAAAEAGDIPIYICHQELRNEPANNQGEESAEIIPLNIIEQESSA
# [2] = target: T2, human amylin 3(a) receptor (human calcitonin receptor co-expressed with RAMP-3) on BHK570/CRE-luc cells (human, UniProt P30988 25-474; O60896 24-148)
# T2 sequence (looked up) 1: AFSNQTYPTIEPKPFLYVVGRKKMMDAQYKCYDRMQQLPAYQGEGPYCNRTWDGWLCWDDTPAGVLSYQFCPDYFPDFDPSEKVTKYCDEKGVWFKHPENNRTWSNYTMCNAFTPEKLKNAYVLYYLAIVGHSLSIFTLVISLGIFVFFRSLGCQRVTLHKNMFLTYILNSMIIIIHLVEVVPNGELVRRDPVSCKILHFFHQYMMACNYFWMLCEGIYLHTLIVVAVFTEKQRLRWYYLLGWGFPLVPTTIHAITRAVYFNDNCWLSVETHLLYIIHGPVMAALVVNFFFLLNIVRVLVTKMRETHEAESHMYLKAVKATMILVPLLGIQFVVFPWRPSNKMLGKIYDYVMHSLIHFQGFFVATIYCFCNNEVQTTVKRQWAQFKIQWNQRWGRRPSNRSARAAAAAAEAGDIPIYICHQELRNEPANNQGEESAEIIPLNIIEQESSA
# T2 sequence (looked up) 2: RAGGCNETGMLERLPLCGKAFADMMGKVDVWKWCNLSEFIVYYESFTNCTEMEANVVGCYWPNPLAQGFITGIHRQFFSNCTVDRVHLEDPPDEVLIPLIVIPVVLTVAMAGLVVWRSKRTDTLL
# [3] = target: T3, human amylin 3(a) receptor (human calcitonin receptor co-expressed with RAMP-3) (human, UniProt P30988 25-474; O60896 24-148, limits assumed)
# T3 sequence (looked up) 1: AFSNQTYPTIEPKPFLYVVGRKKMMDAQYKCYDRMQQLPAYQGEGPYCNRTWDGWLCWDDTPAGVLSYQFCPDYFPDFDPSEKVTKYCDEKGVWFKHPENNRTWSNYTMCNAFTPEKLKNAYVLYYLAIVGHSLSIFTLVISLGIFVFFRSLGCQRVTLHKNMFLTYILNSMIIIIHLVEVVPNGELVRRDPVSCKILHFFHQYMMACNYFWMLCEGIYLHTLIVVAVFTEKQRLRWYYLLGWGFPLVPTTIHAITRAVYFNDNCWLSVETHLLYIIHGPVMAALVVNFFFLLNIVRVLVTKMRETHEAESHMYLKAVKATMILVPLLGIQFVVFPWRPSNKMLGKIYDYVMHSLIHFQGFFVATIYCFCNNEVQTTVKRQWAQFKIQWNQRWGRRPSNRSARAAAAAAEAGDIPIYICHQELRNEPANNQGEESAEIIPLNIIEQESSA
# T3 sequence (looked up) 2: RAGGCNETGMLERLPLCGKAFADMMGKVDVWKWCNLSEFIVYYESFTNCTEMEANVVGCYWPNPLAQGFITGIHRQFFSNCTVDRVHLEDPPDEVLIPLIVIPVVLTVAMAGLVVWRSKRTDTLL
# [4] = target: T4, human calcitonin receptor (human, UniProt P30988 25-474)
# T4 sequence (looked up): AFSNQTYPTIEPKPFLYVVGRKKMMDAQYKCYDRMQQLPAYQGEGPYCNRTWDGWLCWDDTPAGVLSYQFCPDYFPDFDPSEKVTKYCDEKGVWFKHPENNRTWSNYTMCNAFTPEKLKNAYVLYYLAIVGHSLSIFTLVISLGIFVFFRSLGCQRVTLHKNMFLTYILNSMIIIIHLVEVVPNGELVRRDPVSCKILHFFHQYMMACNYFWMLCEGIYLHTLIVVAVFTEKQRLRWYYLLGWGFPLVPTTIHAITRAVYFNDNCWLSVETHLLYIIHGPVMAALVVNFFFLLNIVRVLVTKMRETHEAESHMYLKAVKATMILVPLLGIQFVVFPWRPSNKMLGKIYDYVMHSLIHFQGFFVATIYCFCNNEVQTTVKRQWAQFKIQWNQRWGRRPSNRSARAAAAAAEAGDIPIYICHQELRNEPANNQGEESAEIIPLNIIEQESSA
Binder,"hCTR funct. EC50 (pM), tested with HSA [1] [pM]","hAmylin-R funct. EC50 (pM), tested with HSA [2] [pM]",hAmylin-R funct. EC50 (pM) [3] [pM],hCTR funct. EC50 (pM) [4] [pM]
"{C18 diacid-γGlu}-ASELSTAALGRLSAELHELATLPRTETGSESP-NH2 (SMILES CC(C)C[C@H](NC(=O)[C@H](C)NC(=O)[C@H](C)NC(=O)[C@@H](NC(=O)[C@H](CO)NC(=O)[C@H](CC(C)C)NC(=O)[C@H](CCC(=O)O)NC(=O)[C@H](CO)NC(=O)[C@H](C)NC(=O)CC[C@H](NC(=O)CCCCCCCCCCCCCCCCC(=O)O)C(=O)O)[C@@H](C)O)C(=O)NCC(=O)N[C@@H](CCCNC(=N)N)C(=O)N[C@@H](CC(C)C)C(=O)N[C@@H](CO)C(=O)N[C@@H](C)C(=O)N[C@@H](CCC(=O)O)C(=O)N[C@@H](CC(C)C)C(=O)N[C@@H](Cc1c[nH]cn1)C(=O)N[C@@H](CCC(=O)O)C(=O)N[C@@H](CC(C)C)C(=O)N[C@@H](C)C(=O)N[C@H](C(=O)N[C@@H](CC(C)C)C(=O)N1CCC[C@H]1C(=O)N[C@@H](CCCNC(=N)N)C(=O)N[C@H](C(=O)N[C@@H](CCC(=O)O)C(=O)N[C@H](C(=O)NCC(=O)N[C@@H](CO)C(=O)N[C@@H](CCC(=O)O)C(=O)N[C@@H](CO)C(=O)N1CCC[C@H]1C(N)=O)[C@@H](C)O)[C@@H](C)O)[C@@H](C)O) [[N-terminal(C18 diacid-gGlu), des1, 30S]mimylin]",9,26,–,–
"{C20 diacid-γGlu-AEEA-AEEA}-ASELSTAALGRLSAELHELATLPRTETGSGSP-NH2 [[N-terminal(C20 diacid-gGlu-2xOEG), des1, 30S, 31G]mimylin, listing 1 of 2 here]",–,–,17,12
"{C16 diacid-γGlu}-ASELSTAALGRLSAELHELATLPRTETGSGSP-NH2 [[N-terminal(C16 diacid-gGlu), des1, 30S, 31G]mimylin]",–,–,18,15
"{C20 diacid-γGlu}-ASELSTAALGRLSAELHELATLPRTETGSGSP-NH2 [[N-terminal(C20 diacid-gGlu), des1, 30S, 31G]mimylin]",29,51,–,–
"{C18 diacid-γGlu}-ASELSTAALGRLSAELHELATLPRTETGSGSP-NH2 [[N-terminal(C18 diacid-gGlu), des1, 30S, 31G]mimylin]",–,–,16,17
"{C20 diacid-γGlu-AEEA-AEEA-AEEA-AEEA-AEEA}-ASELSTAALGRLSAELHELATLPRTETGSGSP-NH2 [[N-terminal(C20 diacid-gGlu-5xOEG), des1, 30S, 31G]mimylin]",–,–,15,10
"{C18 diacid}-ASELSTAALGRLSAELHELATLPRTETGSGSP-NH2 [[N-terminal(C18 diacid), des1, 30S, 31G]mimylin]",–,–,18,17
"{C20 diacid-γGlu-AEEA}-ASELSTAALGRLSAELHELATLPRTETGSGSP-NH2 [[N-terminal(C20 diacid-gGlu-OEG), des1, 30S, 31G]mimylin, listing 1 of 2 here]",–,–,27,18
"{C20 diacid}-EASELSTAALGRLSAELHELATLPRTETGSGSP-NH2 [[N-terminal(C20 diacid), 30S, 31G]mimylin]",26,61,–,–
"{C18 diacid}-EASELSTAALGRLSAELHELATLPRTETGSGSP-NH2 [[N-terminal(C18 diacid), 30S, 31G]mimylin]",19,39,–,–
"{C20 diacid-γGlu-AEEA}-ASELSTAALGRLSAELHELATLPRTETGSGSP-NH2 [[N-terminal(C20 diacid-gGlu-OEG), des1, 30S, 31G]mimylin, listing 2 of 2 here]",30,73,–,–
"{C18 diacid-γGlu}-ASELSTAALGRLSAELHELATLPRTETGSPSP-NH2 (SMILES CC(C)C[C@H](NC(=O)[C@H](C)NC(=O)[C@H](C)NC(=O)[C@@H](NC(=O)[C@H](CO)NC(=O)[C@H](CC(C)C)NC(=O)[C@H](CCC(=O)O)NC(=O)[C@H](CO)NC(=O)[C@H](C)NC(=O)CC[C@H](NC(=O)CCCCCCCCCCCCCCCCC(=O)O)C(=O)O)[C@@H](C)O)C(=O)NCC(=O)N[C@@H](CCCNC(=N)N)C(=O)N[C@@H](CC(C)C)C(=O)N[C@@H](CO)C(=O)N[C@@H](C)C(=O)N[C@@H](CCC(=O)O)C(=O)N[C@@H](CC(C)C)C(=O)N[C@@H](Cc1c[nH]cn1)C(=O)N[C@@H](CCC(=O)O)C(=O)N[C@@H](CC(C)C)C(=O)N[C@@H](C)C(=O)N[C@H](C(=O)N[C@@H](CC(C)C)C(=O)N1CCC[C@H]1C(=O)N[C@@H](CCCNC(=N)N)C(=O)N[C@H](C(=O)N[C@@H](CCC(=O)O)C(=O)N[C@H](C(=O)NCC(=O)N[C@@H](CO)C(=O)N1CCC[C@H]1C(=O)N[C@@H](CO)C(=O)N1CCC[C@H]1C(N)=O)[C@@H](C)O)[C@@H](C)O)[C@@H](C)O) [[N-terminal(C18 diacid-gGlu), des1, 30S, 31P]mimylin]",19,39,–,–
"{C20 diacid-γGlu-AEEA-AEEA-AEEA}-ASELSTAALGRLSAELHELATLPRTETGSGSP-NH2 [[N-terminal(C20 diacid-gGlu-3xOEG), des1, 30S, 31G]mimylin]",–,–,18,11
"{C20 diacid-γGlu}-EASELSTAALGRLSAELHELATYPRTETGSGSP-NH2 (SMILES CC(C)C[C@H](NC(=O)[C@H](C)NC(=O)[C@H](C)NC(=O)[C@@H](NC(=O)[C@H](CO)NC(=O)[C@H](CC(C)C)NC(=O)[C@H](CCC(=O)O)NC(=O)[C@H](CO)NC(=O)[C@H](C)NC(=O)[C@H](CCC(=O)O)NC(=O)CC[C@H](NC(=O)CCCCCCCCCCCCCCCCCCC(=O)O)C(=O)O)[C@@H](C)O)C(=O)NCC(=O)N[C@@H](CCCNC(=N)N)C(=O)N[C@@H](CC(C)C)C(=O)N[C@@H](CO)C(=O)N[C@@H](C)C(=O)N[C@@H](CCC(=O)O)C(=O)N[C@@H](CC(C)C)C(=O)N[C@@H](Cc1c[nH]cn1)C(=O)N[C@@H](CCC(=O)O)C(=O)N[C@@H](CC(C)C)C(=O)N[C@@H](C)C(=O)N[C@H](C(=O)N[C@@H](Cc1ccc(O)cc1)C(=O)N1CCC[C@H]1C(=O)N[C@@H](CCCNC(=N)N)C(=O)N[C@H](C(=O)N[C@@H](CCC(=O)O)C(=O)N[C@H](C(=O)NCC(=O)N[C@@H](CO)C(=O)NCC(=O)N[C@@H](CO)C(=O)N1CCC[C@H]1C(N)=O)[C@@H](C)O)[C@@H](C)O)[C@@H](C)O) [[N-terminal(C20 diacid-gGlu), 23Y, 30S, 31G]mimylin]",74,143,–,–
"{C20 diacid-γGlu-AEEA-AEEA}-ASELSTAALGRLSAELHELATLPRTETGSGSP-NH2 [[N-terminal(C20 diacid-gGlu-2xOEG), des1, 30S, 31G]mimylin, listing 2 of 2 here]",35,67,–,–
"{C20 diacid-γGlu-AEEA-AEEA-AEEA-AEEA}-ASELSTAALGRLSAELHELATLPRTETGSGSP-NH2 [[N-terminal(C20 diacid-gGlu-4xOEG), des1, 30S, 31G]mimylin]",–,–,24,13
